No end group written: not given here.
T1: hPygo1 PHD finger V350E (human, UniProt Q9Y3Y4 333-402, V350E)
T1 sequence: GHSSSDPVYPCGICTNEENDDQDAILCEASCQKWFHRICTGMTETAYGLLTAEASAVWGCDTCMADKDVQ

T2: hPHD-HD1 complex (hPygo1 PHD 333-402 with hBCL9 HD1) (human, UniProt Q9Y3Y4 333-402; O00512 177-205)
T2 chain 1: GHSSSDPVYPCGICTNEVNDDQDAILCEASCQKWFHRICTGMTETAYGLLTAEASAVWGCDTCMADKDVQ
T2 chain 2: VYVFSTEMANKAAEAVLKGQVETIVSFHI


Tests used:
[1] = molecular target: T1, hPygo1 PHD finger V350E; assay: ITC
[2] = molecular target: hPygo1 PHD finger mutated at Q354 (human, UniProt Q9Y3Y4 333-402); assay: ITC; Q354A
[3] = molecular target: hPygo1 PHD finger mutated at N351 (human, UniProt Q9Y3Y4 333-402); assay: ITC; N351A
[4] = molecular target: T2, hPHD-HD1 complex (hPygo1 PHD 333-402 …); assay: ITC

Binder	Kd [1] [µM]	Kd [2] [µM]	Kd [3] [µM]	Kd [4] [µM]
ARTKQTARKSTGGKA (trimethyl-lysine at K4) [H3K4me3 15-mer histone H3 tail peptide]	98	13.8	7.1	–
ARTK(Me)QTARKSTGGKA [H3K4me1 15-mer histone H3 tail peptide]	–	–	–	2.2
GRTKQTARK (dimethyl-lysine at K4) [H3K4me2 9-mer whose A1 was substituted with a glycine]	–	–	–	99.8
